B1: Ubiquitin-protein ligase (Homo sapiens), Q05086 (parent)
chain: MEKLHQCYWKSGEPQSDDIEASRMKRAAAKHLIERYYHQLTEGCGNEACTNEFCASCPTFLRMDNNAAAIKALELYKINAKLCDPHPSKKGASSAYLENSKGAPNNSCSEIKMNKKGARIDFKDVTYLTEEKVYEILELCREREDYSPLIRVIGRVFSSAEALVQSFRKVKQHTKEELKSLQAKDEDKDEDEKEKAACSAAAMEEDSEASSSRIGDSSQGDNNLQKLGPDDVSVDIDAIRRVYTRLLSNEKIETAFLNALVYLSPNVECDLTYHNVYSRDPNYLNLFIIVMENRNLHSPEYLEMALPLFCKAMSKLPLAAQGKLIRLWSKYNADQIRRMMETFQQLITYKVISNEFNSRNLVNDDDAIVAASKCLKMVYYANVVGGEVDTNHNEEDDEEPIPESSELTLQELLGEERRNKKGPRVDPLETELGVKTLDCRKPLIPFEEFINEPLNEVLEMDKDYTFFKVETENKFSFMTCPFILNAVTKNLGLYYDNRIRMYSERRITVLYSLVQGQQLNPYLRLKVRRDHIIDDALVRLEMIAMENPADLKKQLYVEFEGEQGVDEGGVSKEFFQLVVEEIFNPDIGMFTYDESTKLFWFNPSSFETEGQFTLIGIVLGLAIYNNCILDVHFPMVVYRKLMGKKGTFRDLGDSHPVLYQSLKDLLEYEGNVEDDMMITFQISQTDLFGNPMMYDLKENGDKIPITNENRKEFVNLYSDYILNKSVEKQFKAFRRGFHMVTNESPLKYLFRPEEIELLICGSRNLDFQALEETTEYDGGYTRDSVLIREFWEIVHSFTDEQKRLFLQFTTGTDRAPVGGLGKLKMIIAKNGPDTERLPTSHTCFNVLLLPEYSSKEKLKERLLKAITYAKGFGML
partner: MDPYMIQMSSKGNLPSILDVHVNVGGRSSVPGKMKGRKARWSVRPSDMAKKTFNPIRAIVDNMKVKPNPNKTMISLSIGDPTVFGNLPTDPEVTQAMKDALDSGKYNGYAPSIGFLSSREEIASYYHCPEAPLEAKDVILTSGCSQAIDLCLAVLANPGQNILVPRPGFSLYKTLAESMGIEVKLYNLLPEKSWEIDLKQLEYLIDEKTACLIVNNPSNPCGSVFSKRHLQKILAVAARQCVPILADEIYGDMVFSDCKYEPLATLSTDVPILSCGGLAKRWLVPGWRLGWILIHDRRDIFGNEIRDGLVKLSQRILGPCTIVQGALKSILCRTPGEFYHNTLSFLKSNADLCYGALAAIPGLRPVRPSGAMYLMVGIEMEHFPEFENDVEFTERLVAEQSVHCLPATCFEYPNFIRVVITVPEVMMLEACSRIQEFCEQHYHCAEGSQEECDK
B2: von Hippel-Lindau disease tumor suppressor (Homo sapiens), P40337-2 (parent)
chain: MPRRAENWDEAEVGAEEAGVEEYGPEEDGGEESGAEESGPEESGPEELGAEEEMEAGRPRPVLRSVNSREPSQVIFCNRSPRVVLPVWLNFDGEPQPYPTLPPGTGRRIHSYRVYTLKERCLQVVRSLVKPENYRRLDIVRSLYEDLEDHPNVQKDLERLTQERIAHQRMGD
B3: DNA mismatch repair protein Mlh1 (Homo sapiens), P40692 (parent)
chain: MSFVAGVIRRLDETVVNRIAAGEVIQRPANAIKEMIENCLDAKSTSIQVIVKEGGLKLIQIQDNGTGIRKEDLDIVCERFTTSKLQSFEDLASISTYGFRGEALASISHVAHVTITTKTADGKCAYRASYSDGKLKAPPKPCAGNQGTQITVEDLFYNIATRRKALKNPSEEYGKILEVVGRYSVHNAGISFSVKKQGETVADVRTLPNASTVDNIRSIFGNAVSRELIEIGCEDKTLAFKMNGYISNANYSVKKCIFLLFINHRLVESTSLRKAIETVYAAYLPKNTHPFLYLSLEISPQNVDVNVHPTKHEVHFLHEESILERVQQHIESKLLGSNSSRMYFTQTLLPGLAGPSGEMVKSTTSLTSSSTSGSSDKVYAHQMVRTDSREQKLDAFLQPLSKPLSSQPQAIVTEDKTDISSGRARQQDEEMLELPAPAEVAAKNQSLEGDTTKGTSEMSEKRGPTSSNPRKRHREDSDVEMVEDDSRKEMTAACTPRRRIINLTSVLSLQEEINEQGHEVLREMLHNHSFVGCVNPQWALAQHQTKLYLLNTTKLSEELFYQILIYDFANFGVLRLSEPAPLFDLAMLALDSPESGWTEEDGPKEGLAEYIVEFLKKKAEMLADYFSLEIDEEGNLIGLPLLIDNYVPPLEGLPIFILRLATEVNWDEEKECFESLSKECAMFYSIRKQYISEESTLSGQQSEVPGSIPNSWKWTVEHIVYKALRSHILPPKHFTEDGNILQLANLPDLYKVFERC
B4: Carbonyl reductase [NADPH] 3 (Homo sapiens), O75828 (parent)
chain: MSSCSRVALVTGANRGIGLAIARELCRQFSGDVVLTARDVARGQAAVQQLQAEGLSPRFHQLDIDDLQSIRALRDFLRKEYGGLNVLVNNAAVAFKSDDPMPFDIKAEMTLKTNFFATRNMCNELLPIMKPHGRVVNISSLQCLRAFENCSEDLQERFHSETLTEGDLVDLMKKFVEDTKNEVHEREGWPNSPYGVSKLGVTVLSRILARRLDEKRKADRILVNACCPGPVKTDMDGKDSIRTVEEGAETPVYLALLPPDATEPQGQLVHDKVVQNW
B5: U4/U6 small nuclear ribonucleoprotein Prp31 (Homo sapiens), Q8WWY3 (parent)
chain: MSLADELLADLEEAAEEEEGGSYGEEEEEPAIEDVQEETQLDLSGDSVKTIAKLWDSKMFAEIMMKIEEYISKQAKASEVMGPVEAAPEYRVIVDANNLTVEIENELNIIHKFIRDKYSKRFPELESLVPNALDYIRTVKELGNSLDKCKNNENLQQILTNATIMVVSVTASTTQGQQLSEEELERLEEACDMALELNASKHRIYEYVESRMSFIAPNLSIIIGASTAAKIMGVAGGLTNLSKMPACNIMLLGAQRKTLSGFSSTSVLPHTGYIYHSDIVQSLPPDLRRKAARLVAAKCTLAARVDSFHESTEGKVGYELKDEIERKFDKWQEPPPVKQVKPLPAPLDGQRKKRGGRRYRKMKERLGLTEIRKQANRMSFGEIEEDAYQEDLGFSLGHLGKSGSGRVRQTQVNEATKARISKTLQRTLQKQSVVYGGKSTIRDRSSGTASSVAFTPLQGLEIVNPQAAEKKVAEANQKYFSSMAEFLKVKGEKSGLMST
partner: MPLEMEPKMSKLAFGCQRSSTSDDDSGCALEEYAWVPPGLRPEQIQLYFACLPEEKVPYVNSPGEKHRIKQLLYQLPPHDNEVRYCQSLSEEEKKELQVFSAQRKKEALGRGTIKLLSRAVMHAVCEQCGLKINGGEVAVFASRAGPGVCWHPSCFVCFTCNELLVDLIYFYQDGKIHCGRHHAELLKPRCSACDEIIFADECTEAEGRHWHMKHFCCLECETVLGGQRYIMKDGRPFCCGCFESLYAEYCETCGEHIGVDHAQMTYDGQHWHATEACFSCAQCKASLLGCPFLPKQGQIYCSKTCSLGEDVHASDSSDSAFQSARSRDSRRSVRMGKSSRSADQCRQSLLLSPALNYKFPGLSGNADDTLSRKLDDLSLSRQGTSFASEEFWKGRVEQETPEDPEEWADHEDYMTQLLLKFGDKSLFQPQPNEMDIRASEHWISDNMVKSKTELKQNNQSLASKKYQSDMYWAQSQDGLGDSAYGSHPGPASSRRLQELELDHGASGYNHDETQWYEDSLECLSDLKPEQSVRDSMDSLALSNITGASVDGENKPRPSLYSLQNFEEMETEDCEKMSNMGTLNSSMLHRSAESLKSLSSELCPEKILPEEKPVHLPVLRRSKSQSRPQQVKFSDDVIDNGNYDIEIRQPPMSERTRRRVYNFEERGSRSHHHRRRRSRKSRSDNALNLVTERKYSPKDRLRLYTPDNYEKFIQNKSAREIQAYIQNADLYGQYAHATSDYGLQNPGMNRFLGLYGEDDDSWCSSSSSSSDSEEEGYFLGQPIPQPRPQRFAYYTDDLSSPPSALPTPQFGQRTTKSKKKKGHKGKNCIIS
B6: Fructose-bisphosphate aldolase A (Homo sapiens), P04075-2 (parent)
chain: MARRKPEGSSFNMTHLSMAMAFSFPPVASGQLHPQLGNTQHQTELGKELATTSTMPYQYPALTPEQKKELSDIAHRIVAPGKGILAADESTGSIAKRLQSIGTENTEENRRFYRQLLLTADDRVNPCIGGVILFHETLYQKADDGRPFPQVIKSKGGVVGIKVDKGVVPLAGTNGETTTQGLDGLSERCAQYKKDGADFAKWRCVLKIGEHTPSALAIMENANVLARYASICQQNGIVPIVEPEILPDGDHDLKRCQYVTEKVLAAVYKALSDHHIYLEGTLLKPNMVTPGHACTQKFSHEEIAMATVTALRRTVPPAVTGITFLSGGQSEEEASINLNAINKCPLLKPWALTFSYGRALQASALKAWGGKKENLKAAQEEYVKRALANSLACQGKYTPSGQAGAAASESLFVSNHAY
partner: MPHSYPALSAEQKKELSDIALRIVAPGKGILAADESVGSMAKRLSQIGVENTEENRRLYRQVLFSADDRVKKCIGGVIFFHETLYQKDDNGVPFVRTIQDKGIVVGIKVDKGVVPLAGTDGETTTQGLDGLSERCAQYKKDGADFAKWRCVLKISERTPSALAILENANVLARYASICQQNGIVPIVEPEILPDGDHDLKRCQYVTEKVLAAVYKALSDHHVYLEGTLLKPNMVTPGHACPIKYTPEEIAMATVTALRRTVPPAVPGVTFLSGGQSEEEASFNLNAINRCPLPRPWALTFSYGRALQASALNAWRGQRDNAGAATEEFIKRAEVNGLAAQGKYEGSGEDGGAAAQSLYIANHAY
B7: Acetylcholine receptor subunit gamma (Homo sapiens), P07510-2 (parent)
chain: MHGGQGPLLLLLLLAVCLGAQGRNQEERLLADLMQNYDPNLRPAERDSDVVNVSLKLTLTNLISLNEREEALTTNVWIEMQWCDYRLRWDPRDYEGLWVLRVPSTMVWRPDIVLENKSQTYSTNEIDLQLSQEDGQTIEWIFIDPEAFTENGEWAIQHRPAKMLLDPAAPAQEAGHQKVVFYLLIQRKPLFYVINIIAPCVLISSVAILIHFLPAKAGGQKCTVAINVLLAQTVFLFLVAKKVPETSQAVPLISKYLTFLLVVTILIVVNAVVVLNVSLRSPHTHSMARGVRKVFLRLLPQLLRMHVRPLAPAAVQDTQSRLQNGSSGWSITTGEEVALCLPRSELLFQQWQRQGLVAAALEKLEKGPELGLSQFCGSLKQAAPAIQACVEACNLIACARHQQSHFDNGNEEWFLVGRVLDRVCFLAMLSLFICGTAGIFLMAHYNRVPALPFPGDPRPYLPSPD
partner: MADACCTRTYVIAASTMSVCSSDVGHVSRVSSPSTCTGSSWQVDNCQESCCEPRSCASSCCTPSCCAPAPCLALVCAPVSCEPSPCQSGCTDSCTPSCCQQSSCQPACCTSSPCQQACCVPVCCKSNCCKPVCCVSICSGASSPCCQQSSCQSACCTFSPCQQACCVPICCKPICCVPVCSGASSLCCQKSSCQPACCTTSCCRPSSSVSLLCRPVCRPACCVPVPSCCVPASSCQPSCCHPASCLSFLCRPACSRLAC

Variants of: B1
Conditions: with atty_human TAT

effect of a mutation on the interaction	Variant
disrupting interaction strength	R529C
disrupting interaction strength	S372P

Variants of: B2
Conditions: with mdfi_human MDFI

effect of a mutation on the interaction	Variant
disrupting interaction strength	S111I
disrupting interaction strength	S38P

Variants of: B3
Conditions: with AP2B1, P63010-2

effect of a mutation on the interaction	Variant
with no effect	G244D
disrupting interaction strength	S44F
with no effect	R472I

Variants of: B3
Conditions: with ccd33_human CCDC33, Q8N5R6

effect of a mutation on the interaction	Variant
disrupting interaction strength	G244D
disrupting interaction strength	S44F
with no effect	R472I

Variants of: B3
Conditions: with taso2_human TASOR2, Q5VWN6

effect of a mutation on the interaction	Variant
disrupting interaction strength	G244D
disrupting interaction strength	S44F
with no effect	R472I

Variants of: B4
Conditions: with sdcb1_human SDCBP

effect of a mutation on the interaction	Variant
disrupting interaction strength	V244M

Variants of: B5
Conditions: with pric1_human PRICKLE1, Q96MT3

effect of a mutation on the interaction	Variant
with no effect	L107V

Variants of: B6
Conditions: with aldoc_human ALDOC

effect of a mutation on the interaction	Variant
with no effect	D183G
with no effect	C393Y
disrupting interaction strength	E261K

Variants of: B7
Conditions: with kr108_human KRTAP10-8, P60410

effect of a mutation on the interaction	Variant
disrupting interaction strength	R86C
disrupting interaction strength	V107G

Source: IntAct's records for PubMed 25910212
